Experimental findings from patent US20120321554A1 (MODIQUEST B V, published 2012) are described below.

The target of experiment [1] is mouse plexin D1 (on vessels in mouse tissue) (mouse) (UniProt Q3UH93). Briefly: cell-based or functional assay.
The target in experiment [2] is T1, Bovine serum albumin (bovine, UniProt P02769 25-607).
T1 construct: Control coat in ELISA; also called BSA
The experiment in a line: phage ELISA, anti-M13 detection.

Experiment [3] deals with T1, Bovine serum albumin. Briefly: ELISA with soluble sdab, detection via VSV-G-tag. (In general: An ELISA detects its analyte on a solid surface through an enzyme-linked reagent.)
Experiment [4] concerns the target T2, PLXND1-peptide-KLH conjugate (human, also: conjugated to KLH, attachment site not given here).
T2 construct: Coupled to a CM5 chip (27 ug/ml in Na-Acetate pH 4.0) for the Biacore measurements; also called KLH-conjugated peptide
T2 peptide: ALEIQRRFPSPTPTNC-NH2
Briefly: SPR, Biacore 2000; peptide-KLH conjugate on CM5 chip, sdab in solution, BSA surface subtracted, 1:1 Langmuir model. (Surface plasmon resonance follows binding to a sensor surface in real time, without labels.)

Experiment [5] concerns the target T3, human plexin D1 (in sections of human tumors) (human, UniProt Q9Y4D7 47-1925).
T3 construct: whole, on cells; Endogenous protein on tumor cells and vessels in tissue sections (immunohistochemistry); also called PLXND1
Briefly: immunohistochemistry on human tumor tissue.

Where no end group is shown, it is not given here.

T1 sequence (P02769 25-607 limits assumed): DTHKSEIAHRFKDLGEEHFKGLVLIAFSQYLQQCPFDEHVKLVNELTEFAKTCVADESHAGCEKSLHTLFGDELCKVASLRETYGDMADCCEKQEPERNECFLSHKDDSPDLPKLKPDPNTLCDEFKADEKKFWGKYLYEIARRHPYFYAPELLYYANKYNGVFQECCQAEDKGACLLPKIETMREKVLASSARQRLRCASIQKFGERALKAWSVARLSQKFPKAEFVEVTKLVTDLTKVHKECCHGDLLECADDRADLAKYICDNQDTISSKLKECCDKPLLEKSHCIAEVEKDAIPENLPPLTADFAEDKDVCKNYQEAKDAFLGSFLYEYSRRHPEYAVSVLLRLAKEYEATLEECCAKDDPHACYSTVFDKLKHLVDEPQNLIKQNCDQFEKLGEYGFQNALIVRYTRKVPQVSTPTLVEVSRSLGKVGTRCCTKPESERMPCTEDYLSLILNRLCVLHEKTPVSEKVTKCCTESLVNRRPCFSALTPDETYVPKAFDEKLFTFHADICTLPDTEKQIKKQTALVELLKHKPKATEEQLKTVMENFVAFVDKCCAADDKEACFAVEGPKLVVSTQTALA
T3 sequence (Q9Y4D7 47-1925): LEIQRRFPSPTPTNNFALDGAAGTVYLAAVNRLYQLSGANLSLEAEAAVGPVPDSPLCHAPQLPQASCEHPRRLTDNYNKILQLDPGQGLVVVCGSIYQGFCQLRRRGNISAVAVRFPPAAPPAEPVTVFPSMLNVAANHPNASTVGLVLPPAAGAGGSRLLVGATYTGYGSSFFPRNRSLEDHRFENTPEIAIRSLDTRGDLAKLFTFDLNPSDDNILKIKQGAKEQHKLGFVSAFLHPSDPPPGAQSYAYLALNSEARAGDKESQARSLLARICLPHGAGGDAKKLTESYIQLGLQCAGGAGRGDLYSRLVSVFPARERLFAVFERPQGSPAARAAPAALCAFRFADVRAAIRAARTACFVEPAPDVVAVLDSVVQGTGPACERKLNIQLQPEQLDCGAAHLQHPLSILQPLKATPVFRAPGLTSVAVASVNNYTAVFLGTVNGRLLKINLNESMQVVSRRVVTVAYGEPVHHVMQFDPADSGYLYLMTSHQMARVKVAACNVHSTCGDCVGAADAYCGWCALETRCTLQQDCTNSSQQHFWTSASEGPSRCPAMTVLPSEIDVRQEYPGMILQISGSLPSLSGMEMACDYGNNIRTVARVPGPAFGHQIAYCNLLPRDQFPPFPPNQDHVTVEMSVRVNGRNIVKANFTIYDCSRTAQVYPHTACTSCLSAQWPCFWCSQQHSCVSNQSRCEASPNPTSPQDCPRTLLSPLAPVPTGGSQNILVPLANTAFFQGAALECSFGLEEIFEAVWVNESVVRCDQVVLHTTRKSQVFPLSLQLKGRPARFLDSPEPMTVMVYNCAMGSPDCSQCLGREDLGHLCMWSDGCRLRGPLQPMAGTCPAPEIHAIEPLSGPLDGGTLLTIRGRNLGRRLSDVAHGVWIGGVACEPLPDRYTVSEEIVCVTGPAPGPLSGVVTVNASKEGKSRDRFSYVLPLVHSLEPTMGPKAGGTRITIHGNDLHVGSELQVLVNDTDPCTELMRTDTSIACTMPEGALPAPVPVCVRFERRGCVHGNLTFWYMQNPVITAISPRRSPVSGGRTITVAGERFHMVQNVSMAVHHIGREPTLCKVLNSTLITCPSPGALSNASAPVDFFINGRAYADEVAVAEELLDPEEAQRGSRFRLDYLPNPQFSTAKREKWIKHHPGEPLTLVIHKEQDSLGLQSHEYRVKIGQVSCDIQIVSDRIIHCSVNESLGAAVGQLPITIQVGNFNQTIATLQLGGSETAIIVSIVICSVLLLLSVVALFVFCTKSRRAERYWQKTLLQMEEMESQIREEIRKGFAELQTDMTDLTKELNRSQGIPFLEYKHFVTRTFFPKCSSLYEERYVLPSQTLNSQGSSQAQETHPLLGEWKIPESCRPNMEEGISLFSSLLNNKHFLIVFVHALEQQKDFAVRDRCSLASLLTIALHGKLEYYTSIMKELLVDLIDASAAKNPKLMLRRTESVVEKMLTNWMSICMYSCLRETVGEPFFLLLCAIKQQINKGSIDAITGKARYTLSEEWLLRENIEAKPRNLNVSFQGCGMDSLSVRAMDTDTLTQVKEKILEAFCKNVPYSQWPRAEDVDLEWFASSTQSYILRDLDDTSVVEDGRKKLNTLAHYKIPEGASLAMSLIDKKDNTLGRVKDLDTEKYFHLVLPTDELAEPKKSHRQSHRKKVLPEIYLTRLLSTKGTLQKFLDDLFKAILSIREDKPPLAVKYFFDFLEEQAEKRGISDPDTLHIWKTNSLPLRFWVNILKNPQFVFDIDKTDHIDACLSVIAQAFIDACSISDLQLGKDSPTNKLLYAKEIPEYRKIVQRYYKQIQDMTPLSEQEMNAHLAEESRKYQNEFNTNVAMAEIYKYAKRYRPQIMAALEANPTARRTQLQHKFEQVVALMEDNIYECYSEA
mouse plexin D1 (on vessels in mouse tissue) (mouse), sequence (Q3UH93 49-1925): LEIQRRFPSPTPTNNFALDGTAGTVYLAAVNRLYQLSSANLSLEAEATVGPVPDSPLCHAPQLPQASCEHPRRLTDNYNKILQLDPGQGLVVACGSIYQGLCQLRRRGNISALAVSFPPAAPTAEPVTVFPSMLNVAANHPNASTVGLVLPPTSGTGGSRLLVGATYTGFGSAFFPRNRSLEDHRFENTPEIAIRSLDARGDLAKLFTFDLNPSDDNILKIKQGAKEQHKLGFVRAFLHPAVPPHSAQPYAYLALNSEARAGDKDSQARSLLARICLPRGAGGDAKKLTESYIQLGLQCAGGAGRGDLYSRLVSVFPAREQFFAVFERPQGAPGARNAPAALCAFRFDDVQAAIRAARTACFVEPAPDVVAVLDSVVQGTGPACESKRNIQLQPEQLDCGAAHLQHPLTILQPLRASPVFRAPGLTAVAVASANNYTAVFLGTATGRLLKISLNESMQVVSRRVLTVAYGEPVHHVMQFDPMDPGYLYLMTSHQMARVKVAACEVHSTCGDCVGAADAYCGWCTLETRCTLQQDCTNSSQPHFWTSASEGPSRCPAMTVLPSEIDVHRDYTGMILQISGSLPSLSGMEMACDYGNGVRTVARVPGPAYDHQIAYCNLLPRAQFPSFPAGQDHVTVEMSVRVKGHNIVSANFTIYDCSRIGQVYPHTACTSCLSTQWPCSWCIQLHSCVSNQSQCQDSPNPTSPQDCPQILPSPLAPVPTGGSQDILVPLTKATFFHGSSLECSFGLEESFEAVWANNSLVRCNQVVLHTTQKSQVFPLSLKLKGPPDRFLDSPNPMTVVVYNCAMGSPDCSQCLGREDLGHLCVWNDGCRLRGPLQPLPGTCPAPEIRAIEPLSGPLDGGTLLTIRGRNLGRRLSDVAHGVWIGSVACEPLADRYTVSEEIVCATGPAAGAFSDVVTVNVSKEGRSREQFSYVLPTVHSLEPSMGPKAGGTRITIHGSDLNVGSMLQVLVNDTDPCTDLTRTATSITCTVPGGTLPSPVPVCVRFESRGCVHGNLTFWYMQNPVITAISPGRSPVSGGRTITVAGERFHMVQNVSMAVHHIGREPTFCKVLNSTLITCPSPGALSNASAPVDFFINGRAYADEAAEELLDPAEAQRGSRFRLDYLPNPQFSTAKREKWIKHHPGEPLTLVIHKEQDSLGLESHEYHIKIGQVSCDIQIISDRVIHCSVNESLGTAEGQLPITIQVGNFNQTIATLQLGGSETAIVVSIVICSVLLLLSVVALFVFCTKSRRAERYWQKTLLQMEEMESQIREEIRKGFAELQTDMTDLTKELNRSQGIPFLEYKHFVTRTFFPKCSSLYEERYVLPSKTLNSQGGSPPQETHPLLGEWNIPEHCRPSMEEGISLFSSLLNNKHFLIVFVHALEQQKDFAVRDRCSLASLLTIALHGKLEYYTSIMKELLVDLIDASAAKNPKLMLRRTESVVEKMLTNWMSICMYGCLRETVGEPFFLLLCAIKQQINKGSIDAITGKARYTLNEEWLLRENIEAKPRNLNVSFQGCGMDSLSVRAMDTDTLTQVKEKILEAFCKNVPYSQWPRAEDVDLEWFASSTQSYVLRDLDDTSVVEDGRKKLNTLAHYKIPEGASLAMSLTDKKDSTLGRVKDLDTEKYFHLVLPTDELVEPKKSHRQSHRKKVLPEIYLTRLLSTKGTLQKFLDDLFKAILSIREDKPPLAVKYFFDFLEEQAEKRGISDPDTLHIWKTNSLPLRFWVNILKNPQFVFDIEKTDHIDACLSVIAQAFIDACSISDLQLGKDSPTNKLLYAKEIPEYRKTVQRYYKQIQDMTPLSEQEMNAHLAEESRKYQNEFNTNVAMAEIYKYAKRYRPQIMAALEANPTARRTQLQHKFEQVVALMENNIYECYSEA

B1: M13 phage displaying single domain antibody F8 (VHH)
VHH: QVQLQESGGGLVQAGDSLRLSCAASGRTFSTLIMAWFRQAPGKEREFVAAISRGGGSTSYADSVKGRFTISRDNSKNAVYLQMNSLKPDDTAVYYCNARYGSRIYWGQGTQVTVSS
notes: Whole M13 phage particle carrying F8; detected with anti-M13 antibody; also called phage F8; M13 phage associated antibody F8; not shown: M13 phage coat protein to which the sdab is fused (phagemid pHENIXHis8VSV); not described
B1 yielded a quantification of phage homing: colony-forming phages eluted from laser-dissected tumor tissue against unaffected brain in experiment [1] of 20 fold. Besides, the binding result with Bovine serum albumin [2] is recorded as “no binding (tested: 10^10 phages)”.

B2: Llama single domain antibody F8 (soluble sdab, C-terminal 8*His-tag and VSV-G-tag) (VHH)
VHH: QVQLQESGGGLVQAGDSLRLSCAASGRTFSTLIMAWFRQAPGKEREFVAAISRGGGSTSYADSVKGRFTISRDNSKNAVYLQMNSLKPDDTAVYYCNARYGSRIYWGQGTQVTVSS
notes: also called sdab F8; V-H single domain antibody F8
On to B2, for which, in the experiment with Bovine serum albumin [3], the binding result is “no binding”. Moreover, binding in experiment [4] was put at a Kd of 35 nM.

B3: Llama single domain antibody A12 (soluble sdab, C-terminal 8*His-tag and VSV-G-tag) (VHH)
VHH: QVQLQESGGGLVQPGGSLRLSCAASGSSISINNWGWYRQAPGKQRERVAAISGGGKTVYADSVKGRFTISRDNAKNTVYLQMNSLKPEDTAVYYCRAVRKSTGWLRGLDVWGQGTQVTVSA
notes: also called sdab A12; V-H single domain antibody A12
B3: the binding result in experiment [5] is “binds”; with Bovine serum albumin [3] it was “no binding”. Further, binding in experiment [4] was put at a Kd of 21 nM.

B4: M13 phage displaying single domain antibody A12 (VHH)
VHH: QVQLQESGGGLVQPGGSLRLSCAASGSSISINNWGWYRQAPGKQRERVAAISGGGKTVYADSVKGRFTISRDNAKNTVYLQMNSLKPEDTAVYYCRAVRKSTGWLRGLDVWGQGTQVTVSA
notes: Whole M13 phage particle carrying A12; detected with anti-M13 antibody; also called phage A12; M13 phage associated antibody A12; not shown: M13 phage coat protein to which the sdab is fused (phagemid pHENIXHis8VSV); not described
As for B4, the binding result in the experiment with Bovine serum albumin [2] was “no binding (tested: 10^10 phages)”.
